{"source": "paper PMC11196586", "about": "“Molecular insight into interactions between the Taf14, Yng1 and Sas3 subunits of the NuA3 complex” (Nature Communications, 2024)", "molecules": {"B1": {"name": "Taf14ET (extra-terminal domain of Taf14, aa 168-243) (domain or fragment, S. cerevisiae, UniProt P35189 168-243, looked up)", "chain": "GSASTVKGSVDLEKLAFGLTKLNEDDLVGVVQMVTDNKTPEMNVTNNVEEGEFIIDLYSLPEGLLKSLWDYVKKNT", "notes": "Taf14, S. cerevisiae, UniProt P35189, ET domain, aa 168-243; Uniformly 15N-labelled for NMR; also called ET domain of Taf14"}}, "key": {"[1]": {"molecular_target": "the molecule itself", "assay": "crystal structure; Taf14ET co-crystallized with Yng1EBM peptide (molar ratio 1:2.5); 40% PEG 400, 0.1 M Tris pH 8.5, 0.2 M LiSO4; 1.9 Å"}, "[2]": {"molecular_target": "T1, Yng1_(EBM-PHD) (aa 100-219 of Yng1) (S. cerevisiae, UniProt Q08465 100-219)", "T1 construct": "Yng1, S. cerevisiae, UniProt Q08465, EBM coupled to the PHD finger, aa 100-219; source: E. coli Rosetta-2 (DE3) pLysS, purified", "T1 sequence (looked up)": "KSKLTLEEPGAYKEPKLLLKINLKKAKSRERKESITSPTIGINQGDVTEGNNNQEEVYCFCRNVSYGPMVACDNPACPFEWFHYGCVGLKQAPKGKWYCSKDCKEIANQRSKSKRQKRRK", "assay": "NMR titration; 1H,15N HSQC of 0.05-0.2 mM 15N-labeled Taf14 proteins, 298 K, unlabeled peptide or Yng1EBM-PHD added; Tris-HCl or PBS, pH 6.6-7.5; apparent Kd from CSPs, 1:1 stoichiometry", "conditions": "both partners purified"}, "[3]": {"type": "physicochemical, Saccharomyces cerevisiae", "description": "The S. cerevisiae Taf14FL (aa 1-244) (UniProt code P35189), Taf14YEATS (aa 1-137), Taf14ET (aa 168-243) and Yng1EBM-PHD (aa 100-219) (UniProt code Q08465) were cloned into pGEX-6P1, pET22b or pCIOX vectors. The F220R, I222R and L224R mutants of Taf14ET were generated using QuikChange II site directed mutagenesis kit (Agilent). Sequences were confirmed by DNA sequencing. All proteins were expressed in Escherichia coli Rosetta-2 (DE3) pLysS cells grown in either Terrific Broth, Luria Broth or in minimal media supplemented with ^15NH4Cl (Sigma). Protein production was induced with 0.3 mM IPTG for 18 h at 16 °C. Bacteria were harvested by centrifugation and lysed by sonication. GST-fusion proteins were purified on glutathione agarose 4B beads (Thermo Fisher Sci). The GST-tag was cleaved with either PreScission or tobacco etch virus (TEV) protease. After cleavage, Taf14FL and Taf14YEATS retained the pGEX-6P1vector-derived residues Gly and Pro. His-fusion proteins were incubated with Ni-NTA resin (ThermoFisher), washed and eluted with a gradient of imidazole. When necessary, removal of the His-tag was completed during an overnight dialysis, while incubating the protein with ULP1 protease. […]\nNuclear magnetic resonance experiments were performed at 298 K on Varian INOVA 900 MHz (for Taf14FL) and 600 MHz (for Taf14ET and Taf14YEATS) spectrometers equipped with cryogenic probes as described. […] NMR data were processed and analyzed using NMRPipe as previously described, with the apparent Kds being determined by a nonlinear least-squares analysis and a 1:1 stoichiometry in GraphPad Prism using the equation:2 Δδ=ΔδmaxL+P+Kd−L+P+Kd^2−4PL/2P Where [L] is the concentration of the peptide, [P] is concentration of the protein, Δδ is the observed chemical shift change, and Δδ max is the normalized chemical shift change at saturation. Normalized chemical shift changes were calculated using the equation δ=ΔδH^2+(ΔδN/5)^2 (3), where Δδ is the change in chemical shift in parts per million (ppm)."}, "[4]": {"molecular_target": "T2, Taf14FL (full length Taf14, aa 1-244) (S. cerevisiae), P35189", "T2 chain": "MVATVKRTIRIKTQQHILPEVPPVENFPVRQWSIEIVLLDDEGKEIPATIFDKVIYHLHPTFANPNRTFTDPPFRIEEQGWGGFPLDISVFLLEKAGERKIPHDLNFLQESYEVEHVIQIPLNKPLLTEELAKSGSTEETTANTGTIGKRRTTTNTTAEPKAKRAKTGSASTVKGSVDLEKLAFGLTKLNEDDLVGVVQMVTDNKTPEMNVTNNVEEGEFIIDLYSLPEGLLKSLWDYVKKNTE", "assay": "mass photometry; Taf14FL with Yng1EBM (1:1 molar ratio), final 100 nM, room temperature, 50 mM Tris pH 7.5, 150 mM NaCl, 1 mM TCEP", "conditions": "remark: other sources report otherwise"}, "[5]": {"molecular_target": "T3, Taf14FL (full length Taf14, aa 1-244) (S. cerevisiae, UniProt P35189 1-244)", "T3 construct": "Taf14, S. cerevisiae, UniProt P35189, aa 1-244; uniformly 15N-labelled for NMR; also called transcription initiation factor subunit 14", "T3 sequence (looked up)": "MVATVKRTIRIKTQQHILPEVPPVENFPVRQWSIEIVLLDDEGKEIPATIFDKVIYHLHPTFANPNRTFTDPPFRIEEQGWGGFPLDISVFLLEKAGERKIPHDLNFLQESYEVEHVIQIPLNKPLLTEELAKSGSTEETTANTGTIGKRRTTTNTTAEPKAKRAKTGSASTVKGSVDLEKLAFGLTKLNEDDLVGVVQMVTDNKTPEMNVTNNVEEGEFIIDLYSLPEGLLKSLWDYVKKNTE", "assay": "other fluorescence titration; tryptophan fluorescence, 25 °C; 1 μM Taf14ET or Taf14FL, increasing peptide; 50 mM Tris-HCl pH 6.8 or 7.5, 150 mM NaCl, 1 mM DTT or 0.2 mM TCEP; excitation 295 nm; apparent Kd, 1:1 stoichiometry", "conditions": "both partners purified"}, "[6]": {"molecular_target": "B1", "assay": "other fluorescence titration; tryptophan fluorescence, 25 °C; 1 μM Taf14ET or Taf14FL, increasing peptide; 50 mM Tris-HCl pH 6.8 or 7.5, 150 mM NaCl, 1 mM DTT or 0.2 mM TCEP; excitation 295 nm; apparent Kd, 1:1 stoichiometry", "conditions": "both partners purified"}, "[7]": {"molecular_target": "B1", "assay": "NMR titration; 1H,15N HSQC of 0.05-0.2 mM 15N-labeled Taf14 proteins, 298 K, unlabeled peptide or Yng1EBM-PHD added; Tris-HCl or PBS, pH 6.6-7.5; apparent Kd from CSPs, 1:1 stoichiometry", "conditions": "both partners purified"}}, "data": [{"molecule": "B1", "values": [{"measurement": "stoichiometry N", "setting": "[1]", "result": 2}, {"measurement": "binding result", "setting": "[2]", "result": "binds"}]}, {"molecule": "F220R Taf14ET: F220R mutant of Taf14ET (aa 168-243 of S. cerevisiae Taf14) (protein, UniProt P35189 168-243, looked up, variant F220R, ET domain (aa 168-243)) GSASTVKGSVDLEKLAFGLTKLNEDDLVGVVQMVTDNKTPEMNVTNNVEEGERIIDLYSLPEGLLKSLWDYVKKNT", "values": [{"measurement": "stability of mutated Taf14ET protein", "setting": "[3]", "result": "unstable"}]}, {"molecule": "L224R Taf14ET: L224R mutant of Taf14ET (aa 168-243 of S. cerevisiae Taf14) (protein, UniProt P35189 168-243, looked up, variant L224R, ET domain (aa 168-243)) GSASTVKGSVDLEKLAFGLTKLNEDDLVGVVQMVTDNKTPEMNVTNNVEEGEFIIDRYSLPEGLLKSLWDYVKKNT", "values": [{"measurement": "stability of mutated Taf14ET protein", "setting": "[3]", "result": "unstable"}]}, {"molecule": "I222R Taf14ET: I222R mutant of Taf14ET (aa 168-243 of S. cerevisiae Taf14) (protein, UniProt P35189 168-243, looked up, variant I222R, ET domain (aa 168-243)) GSASTVKGSVDLEKLAFGLTKLNEDDLVGVVQMVTDNKTPEMNVTNNVEEGEFIRDLYSLPEGLLKSLWDYVKKNT", "values": [{"measurement": "stability of mutated Taf14ET protein", "setting": "[3]", "result": "unstable"}]}, {"molecule": "Taf14FL (full length Taf14, aa 1-244), P35189 1-244 (natural protein) MVATVKRTIRIKTQQHILPEVPPVENFPVRQWSIEIVLLDDEGKEIPATIFDKVIYHLHPTFANPNRTFTDPPFRIEEQGWGGFPLDISVFLLEKAGERKIPHDLNFLQESYEVEHVIQIPLNKPLLTEELAKSGSTEETTANTGTIGKRRTTTNTTAEPKAKRAKTGSASTVKGSVDLEKLAFGLTKLNEDDLVGVVQMVTDNKTPEMNVTNNVEEGEFIIDLYSLPEGLLKSLWDYVKKNTE", "values": [{"measurement": "stoichiometry N", "setting": "[4]", "result": 2}]}, {"molecule": "Ac-SEELKVRIKYDS-NH2 (Sas3 (something about silencing 3), catalytic subunit of the yeast NuA3 complex, aa 111-122; also called Sas3 peptide; source: synthetic peptide (Synpeptide))", "note": "[Sas3EBM peptide (aa 111-122 of Sas3), Ac-SEELKVRIKYDS-NH2]", "values": [{"measurement": "Kd", "setting": "[5]", "result": 21, "unit": "µM"}, {"measurement": "Kd", "setting": "[6]", "result": 18, "unit": "µM"}]}, {"molecule": "SEEDKVRIKYDS (peptide, UniProt P34218 111-122, looked up, Sas3, yeast, aa 111-122 with L114D; The wild-type peptide is Ac-...-NH2; source: peptide)", "note": "[L114D Sas3EBM peptide (aa 111-122 of Sas3)]", "values": [{"measurement": "Kd", "setting": "[7]", "result": 540, "unit": "µM"}]}]}
